We go through seven molecules from article PMC3904261 (British Journal of Pharmacology, 2013).

The target of assay [1] is T1, CGRP receptor (Homo sapiens, UniProt O60894+Q16602). The assay is described as follows: cAMP production in SK-N-MC cells. The format is cell-based. Further details: relative expression levels of the receptors (endogenous vs. overexpressed); endogenous in cells; host or cells: SK-N-MC cells (ECACC clone; ATCC clone for [Cys5]-CGRP). The conditions noted are these: for cAMP (SK-N-MC) Emax (% CGRP) CGRP analogue: radioreceptor assay, approx. 10 min, means ± SEM, n = 3–6. The method, then:
(§1) Production of cAMP in SK-N-MC cells for all analogues except [[…]]-hαCGRP was by a radioreceptor assay, as described previously (Poyner et al., [1998]). […] For [[…]]-hαCGRP, a different clone of SK-N-MC cells was used and cAMP production was measured via AlphaScreen (Perkin Elmer, Wellesley, MA, USA), as described previously ([…] et al., [2010]). This assay was also used to investigate the action of all derivatives at the AMY1(a) receptor and other experiments using Cos 7 cells. […] GraphPad Prism 5.00 or 6.00 (GraphPad Software Inc., San Diego, CA, USA) was used for data fitting. Concentration-response curves were fitted to a sigmoidal function with Hill slope constrained to unity to obtain pEC50 and maximum responses (Emax) values. Displacement curves were analysed to obtain pIC50 values. Schild plots were fitted by linear regression to obtain slope and intercepts. pEC50 and pIC50 values were compared with that of human αCGRP using Dunnett's test with either a normal or repeated measures one-way ANOVA, as appropriate.
For orientation: Changes in cAMP serve as a functional read-out for many G protein-coupled receptors.

The next assay concerns the target T2, AMY1(a) receptor (Homo sapiens, UniProt O60894+P30988).
T2 construct: HA; expressed in transfected cells; host or cells: Cos 7
Kind of assay: cAMP production in Cos 7 cells via the AMY1(a) receptor. The conditions noted are these: AlphaScreen, means ± SEM. The format is cell-based. The protocol: as §1, with “SK-N-MC cells were grown in DMEM/F12 medium supplemented with 10% fetal calf serum as described previously (Poyner et al., [1998]). […] Production” for “Production”

Assay [2] concerns the target T1, CGRP receptor. The assay is described as follows: β-arrestin 2 translocation in CHO-K1 cells (PathHunter eXpress). The format is cell-based. Further details: host or cells: CHO-K1 (PathHunter eXpress β-arrestin kit). To be noted: for β-Arrestin (CHO-K1) Emax (% CGRP) CGRP analogue: 2 h stimulation, means ± SEM, n = 3; for reduction of Emax, β-arrestin 2 translocation: CHO-K1 cells, compared with CGRP. The protocol:
GraphPad Prism 5.00 or 6.00 (GraphPad Software Inc., San Diego, CA, USA) was used for data fitting. Concentration–response curves were fitted to a sigmoidal function with Hill slope constrained to unity to obtain pEC50 and maximum responses (Emax) values. Displacement curves were analysed to obtain pIC50 values. Schild plots were fitted by linear regression to obtain slope and intercepts. pEC50 and pIC50 values were compared with that of human αCGRP using Dunnett's test with either a normal or repeated measures one-way ANOVA, as appropriate.

In assay [3] the target is T3, CGRP receptor (calcitonin receptor-like receptor in complex with receptor activity-modifying protein 1) (human (endogenous in SK-N-MC), UniProt Q16602 23-461; O60894 27-148). The assay is described as follows: cell-based or functional assay.
T3 sequence (Q16602 23-461, chain 1 of 2): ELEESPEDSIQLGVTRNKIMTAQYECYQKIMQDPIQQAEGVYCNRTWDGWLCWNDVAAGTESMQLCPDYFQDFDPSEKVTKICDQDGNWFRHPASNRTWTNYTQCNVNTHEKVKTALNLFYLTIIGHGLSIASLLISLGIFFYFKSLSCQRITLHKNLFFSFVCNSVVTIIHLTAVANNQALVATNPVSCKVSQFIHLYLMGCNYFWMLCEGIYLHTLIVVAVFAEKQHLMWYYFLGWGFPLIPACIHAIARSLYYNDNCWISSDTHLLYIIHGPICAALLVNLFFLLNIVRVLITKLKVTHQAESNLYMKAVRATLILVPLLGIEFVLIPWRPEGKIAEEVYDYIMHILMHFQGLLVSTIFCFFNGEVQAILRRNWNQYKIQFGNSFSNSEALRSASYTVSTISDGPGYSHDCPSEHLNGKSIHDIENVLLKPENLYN
T3 sequence (O60894 27-148, chain 2 of 2): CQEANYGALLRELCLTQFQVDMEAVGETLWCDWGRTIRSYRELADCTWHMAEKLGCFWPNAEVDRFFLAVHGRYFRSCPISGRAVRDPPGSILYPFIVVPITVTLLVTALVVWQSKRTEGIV
Assay [4] addresses AMY_(1(a)) receptor (human HA-tagged CT (a) receptor with human myc-tagged RAMP1) (human) (UniProt O60894).
Assay [5] deals with T3, CGRP receptor (calcitonin receptor-like …). Kind of assay: radioligand binding; displacement of ^125I-CGRP from SK-N-MC cell membranes by unlabelled peptides, microcentrifugation-based binding assay; [Cys^5]-CGRP and its control on another batch of SK-N-MC cells. The conditions noted are these: one partner purified.

Values joined by “and” are separate entries in the source; they are usually repeats but may differ in a detail not shown here. Equal values may be shown once. Bridge positions count the residues as written; N and C are the ends. Ends that are not written are not given here.

T2 sequence (P30988 25-474): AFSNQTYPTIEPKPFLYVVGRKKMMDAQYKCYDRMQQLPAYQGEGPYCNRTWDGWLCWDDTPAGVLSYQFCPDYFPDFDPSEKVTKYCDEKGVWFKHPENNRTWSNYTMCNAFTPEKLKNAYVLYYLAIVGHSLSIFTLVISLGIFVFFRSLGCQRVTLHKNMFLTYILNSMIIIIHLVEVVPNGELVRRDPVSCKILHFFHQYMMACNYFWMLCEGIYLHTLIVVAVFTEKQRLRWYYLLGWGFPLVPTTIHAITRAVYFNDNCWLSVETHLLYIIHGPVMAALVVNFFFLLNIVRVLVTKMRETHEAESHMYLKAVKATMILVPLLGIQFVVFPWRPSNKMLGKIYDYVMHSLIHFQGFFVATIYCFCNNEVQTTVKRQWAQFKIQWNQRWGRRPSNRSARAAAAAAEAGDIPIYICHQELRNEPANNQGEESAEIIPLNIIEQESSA
T2 sequence (O60894 27-148): as the sequence (O60894 27-148, chain 2 of 2) above
T1 sequence (Q16602 23-461): as the sequence (Q16602 23-461, chain 1 of 2) above
T1 sequence (O60894 27-148): as the sequence (O60894 27-148, chain 2 of 2) above
Chain of AMY_(1(a)) receptor (human HA-tagged CT (a) receptor with human myc-tagged RAMP1) (human) (O60894 whole entry, looked up): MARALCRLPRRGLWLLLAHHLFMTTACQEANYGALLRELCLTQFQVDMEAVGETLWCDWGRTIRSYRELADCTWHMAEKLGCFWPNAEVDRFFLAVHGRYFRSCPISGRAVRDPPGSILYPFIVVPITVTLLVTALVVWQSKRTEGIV

On to `CC(C)C[C@H](NC(=O)CNC(=O)[C@H](C)NC(=O)[C@H](CC(C)C)NC(=O)[C@H](CCCNC(=N)N)NC(=O)[C@H](Cc1c[nH]cn1)NC(=O)[C@@H](NC(=O)[C@@H](NC(=O)[C@@H]1CSSC[C@H](NC(=O)[C@H](C)N)C(=O)N[C@@H](CC(=O)O)C(=O)N[C@@H](C)C(=O)N[C@@H](C)C(=O)N[C@@H]([C@@H](C)O)C(=O)N1)C(C)C)[C@@H](C)O)C(=O)N[C@@H](CC(C)C)C(=O)N[C@@H](CO)C(=O)N[C@@H](CCCNC(=N)N)C(=O)N[C@@H](CO)C(=O)NCC(=O)NCC(=O)N[C@H](C(=O)N[C@H](C(=O)N[C@@H](CCCCN)C(=O)N[C@@H](CC(N)=O)C(=O)N[C@@H](CC(N)=O)C(=O)N[C@@H](Cc1ccccc1)C(=O)N[C@H](C(=O)N1CCC[C@H]1C(=O)N[C@H](C(=O)N[C@@H](CC(N)=O)C(=O)N[C@H](C(=O)NCC(=O)N[C@@H](CO)C(=O)N[C@@H](CCCCN)C(=O)N[C@@H](C)C(=O)N[C@@H](Cc1ccccc1)C(N)=O)C(C)C)[C@@H](C)O)C(C)C)C(C)C)C(C)C` [[Ala^4]], for which, on CGRP receptor [1] (AlphaScreen, second SK-N-MC clone, n = 3–4, read-out: pEC50, cAMP, control experiments for cross-compatibility of the two SK-N-MC cell clones (converted)), the EC50 is 26.3 nM and 40.7 nM. Also, the “cAMP (SK-N-MC) Emax (% CGRP) CGRP analogue” value worked out at 100 ± 11 % CGRP at CGRP receptor [1], 72 ± 12 % CGRP on CGRP receptor [1] (listed as [Ala^6]), 104 ± 8 % CGRP at CGRP receptor [1] (listed as [Ala^8]) and 103 ± 13 % CGRP on CGRP receptor [1] (listed as [Ala^9]). The “AMY1(a) receptor-stimulated cAMP Emax (% CGRP) CGRP analogue” value at AMY1(a) receptor (n = 3–6) was 161 ± 45 % CGRP; on AMY1(a) receptor (n = 3–6, listed as [Ala^6]) it was 42 ± 11 % CGRP; on AMY1(a) receptor (n = 3–6, listed as [Ala^8]), 143 ± 11 % CGRP; on AMY1(a) receptor (n = 3–6, listed as [Ala^9]), 89 ± 9 % CGRP. Further, the “β-Arrestin (CHO-K1) Emax (% CGRP) CGRP analogue” value on CGRP receptor [2] worked out at 73 ± 3 % CGRP; at CGRP receptor [2] (listed as [Ala^6]), 43 ± 2.0 % CGRP; at CGRP receptor [2] (listed as [Ala^8]) it was 81 ± 3 % CGRP; on CGRP receptor [2] (listed as [Ala^9]), 64 ± 3 % CGRP. Moreover, the “reduction of Emax, β-arrestin 2 translocation” value is given as about 60% at CGRP receptor [2] (listed as [Ala^6]-CGRP) and 20% on CGRP receptor [2] (listed as [Ala^8]-CGRP).

B1: [Ala^9]-CGRP (peptide)
chain: ACDTATCVAHRLAGLLSRSGGVVKNNFVPTNVGSKAF-NH2
modifications: disulfide 2-7; N-terminus assumed
SMILES: CC(C)C[C@H](NC(=O)CNC(=O)[C@H](C)NC(=O)[C@H](CC(C)C)NC(=O)[C@H](CCCNC(=N)N)NC(=O)[C@H](Cc1c[nH]cn1)NC(=O)[C@H](C)NC(=O)[C@@H](NC(=O)[C@@H]1CSSC[C@H](NC(=O)[C@H](C)N)C(=O)N[C@@H](CC(=O)O)C(=O)N[C@@H]([C@@H](C)O)C(=O)N[C@@H](C)C(=O)N[C@@H]([C@@H](C)O)C(=O)N1)C(C)C)C(=O)N[C@@H](CC(C)C)C(=O)N[C@@H](CO)C(=O)N[C@@H](CCCNC(=N)N)C(=O)N[C@@H](CO)C(=O)NCC(=O)NCC(=O)N[C@H](C(=O)N[C@H](C(=O)N[C@@H](CCCCN)C(=O)N[C@@H](CC(N)=O)C(=O)N[C@@H](CC(N)=O)C(=O)N[C@@H](Cc1ccccc1)C(=O)N[C@H](C(=O)N1CCC[C@H]1C(=O)N[C@H](C(=O)N[C@@H](CC(N)=O)C(=O)N[C@H](C(=O)NCC(=O)N[C@@H](CO)C(=O)N[C@@H](CCCCN)C(=O)N[C@@H](C)C(=O)N[C@@H](Cc1ccccc1)C(N)=O)C(C)C)[C@@H](C)O)C(C)C)C(C)C)C(C)C
Regarding B1, in assay [3], the “Emax (% CGRP), cAMP production in SK-N-MC cells” value worked out at 103 % CGRP; the “Emax (% CGRP), β-arrestin 2 translocation in CHO-K1 cells expressing the human CGRP receptor” value was determined as 64 % CGRP; the “pEC50, cAMP production in SK-N-MC cells” value came to 7.3; the “pEC50, β-arrestin 2 translocation in CHO-K1 cells expressing the human CGRP receptor” value stood at 8.23. In addition, in assay [4], the Emax (% CGRP), cAMP production in Cos 7 cells with the AMY (1(a)) receptor was 89 % CGRP and the pEC50, cAMP production in Cos 7 cells with the AMY (1(a)) receptor is 8.21.

B2: [Ala^8]-CGRP (peptide)
chain: ACDTATCATHRLAGLLSRSGGVVKNNFVPTNVGSKAF-NH2
modifications: disulfide 2-7; N-terminus assumed
SMILES: CC(C)C[C@H](NC(=O)CNC(=O)[C@H](C)NC(=O)[C@H](CC(C)C)NC(=O)[C@H](CCCNC(=N)N)NC(=O)[C@H](Cc1c[nH]cn1)NC(=O)[C@@H](NC(=O)[C@H](C)NC(=O)[C@@H]1CSSC[C@H](NC(=O)[C@H](C)N)C(=O)N[C@@H](CC(=O)O)C(=O)N[C@@H]([C@@H](C)O)C(=O)N[C@@H](C)C(=O)N[C@@H]([C@@H](C)O)C(=O)N1)[C@@H](C)O)C(=O)N[C@@H](CC(C)C)C(=O)N[C@@H](CO)C(=O)N[C@@H](CCCNC(=N)N)C(=O)N[C@@H](CO)C(=O)NCC(=O)NCC(=O)N[C@H](C(=O)N[C@H](C(=O)N[C@@H](CCCCN)C(=O)N[C@@H](CC(N)=O)C(=O)N[C@@H](CC(N)=O)C(=O)N[C@@H](Cc1ccccc1)C(=O)N[C@H](C(=O)N1CCC[C@H]1C(=O)N[C@H](C(=O)N[C@@H](CC(N)=O)C(=O)N[C@H](C(=O)NCC(=O)N[C@@H](CO)C(=O)N[C@@H](CCCCN)C(=O)N[C@@H](C)C(=O)N[C@@H](Cc1ccccc1)C(N)=O)C(C)C)[C@@H](C)O)C(C)C)C(C)C)C(C)C
As to B2, in assay [5], the pKi (usually the negative decadic logarithm of the Ki, by convention in mol/L) is 9.42. In assay [4], this molecule displayed an Emax (% CGRP), cAMP production in Cos 7 cells with the AMY (1(a)) receptor of 143 % CGRP and a pEC50, cAMP production in Cos 7 cells with the AMY (1(a)) receptor of 8.97.
In the case of ACDTAKCVTHRLAGLLSRSGGVVKNNFVPTNVGSKAF-NH2 (disulfide 2-7) [[Lys^6]-CGRP], the negative logarithm of the Ki (pKi) in assay [5] turned out to be 7.76.
For ACDTACCVTHRLAGLLSRSGGVVKNNFVPTNVGSKAF-NH2 (disulfide 2-7; also: Cys6 Acm protected, removal not given here) [[Cys^6]-CGRP], the pKi in assay [5] worked out at 9.33.
With CCDTATCVTHRLAGLLSRSGGVVKNNFVPTNVGSKAF-NH2 (disulfide 2-7; also: Cys1 Acm protected, removal not given here) [[Cys^1]-CGRP], the negative-log Ki (pKi) in assay [5] was 9.55. In assay [3], the “Emax (% CGRP), cAMP production in SK-N-MC cells” value worked out at 71 % CGRP; the “Emax (% CGRP), β-arrestin 2 translocation in CHO-K1 cells expressing the human CGRP receptor” value is 60 % CGRP; the “pEC50, cAMP production in SK-N-MC cells” value was determined as 7.7; the “pEC50, β-arrestin 2 translocation in CHO-K1 cells expressing the human CGRP receptor” value is 8.58.
Take ACDTADCVTHRLAGLLSRSGGVVKNNFVPTNVGSKAF-NH2 (disulfide 2-7) [[Asp^6]-CGRP]: in assay [5], the pKi came to 7.5.
